From patent US20120316071A1 (published 2012)
Numbering of substitutions follows the chain as printed. Names may count otherwise.

B1: Fab VH1-46_IGHD6-6*01_IGHJ1*01 S102A/S103P/S104F/H111F G56H & L6_IGKJ1*01 (Fab, V domains shown)
VH: QVQLVQSGAEVKKPGASVKVSCKASGYTFTSYYMHWVRQAPGQGLEWMGIINPSGHSTSYAQKFQGRVTMTRDTSTSTVYMELSSLRSEDTAVYYCAREEYAPFSAEYFQFWGQGTLVTVSS
VL: not shown
notes: Fab from E. coli; CH1 (with His and Flag tags) and kappa CL come from the expression plasmids; also called APFF G56H
B2: Fab VH1-46_IGHD6-6*01_IGHJ1*01 S102A/S103P/S104F/H111F G56I & L6_IGKJ1*01 (Fab, V domains shown)
VH: B1 VH with H56I
VL: not shown
notes: Fab from E. coli; CH1 (with His and Flag tags) and kappa CL come from the expression plasmids; also called APFF G56I
B3: Fab VH1-46_IGHD6-6*01_IGHJ1*01 S102A/S103P/S104F/H111F G56V & L6_IGKJ1*01 (Fab, V domains shown)
VH: B1 VH with H56V
VL: not shown
notes: Fab from E. coli; CH1 (with His and Flag tags) and kappa CL come from the expression plasmids; also called APFF G56V
B4: Fab VH1-46_IGHD6-6*01_IGHJ1*01 S102A/S103P/S104F/H111F N52A & L6_IGKJ1*01 (Fab, V domains shown)
VH: B1 VH with N52A, H56G
VL: not shown
notes: Fab from E. coli; CH1 (with His and Flag tags) and kappa CL come from the expression plasmids; also called APFF N52A
B5: Fab VH1-46_IGHD6-6*01_IGHJ1*01 S102A/S103P/S104F/H111F G56S & L6_IGKJ1*01 (Fab, V domains shown)
VH: B1 VH with H56S
VL: not shown
notes: Fab from E. coli; CH1 (with His and Flag tags) and kappa CL come from the expression plasmids; also called APFF G56S
B6: Fab VH1-46_IGHD6-6*01_IGHJ1*01 S102A/S103P/S104F/H111F G56T & L6_IGKJ1*01 (Fab, V domains shown)
VH: B1 VH with H56T
VL: not shown
notes: Fab from E. coli; CH1 (with His and Flag tags) and kappa CL come from the expression plasmids; also called APFF G56T
B7: Fab VH1-46_IGHD6-6*01_IGHJ1*01 S102A/S103P/S104F/H111F N52G & L6_IGKJ1*01 (Fab, V domains shown)
VH: B1 VH with N52G, H56G
VL: not shown
notes: Fab from E. coli; CH1 (with His and Flag tags) and kappa CL come from the expression plasmids; also called APFF N52G
B8: Fab VH1-46_IGHD6-6*01_IGHJ1*01 S102A/S103P/S104F/H111F G56W & L6_IGKJ1*01 (Fab, V domains shown)
VH: B1 VH with H56W
VL: not shown
notes: Fab from E. coli; CH1 (with His and Flag tags) and kappa CL come from the expression plasmids; also called APFF G56W
B9: Fab VH1-46_IGHD6-6*01_IGHJ1*01 S102A/S103P/S104F/H111F G56R & L6_IGKJ1*01 (Fab, V domains shown)
VH: B1 VH with H56R
VL: not shown
notes: Fab from E. coli; CH1 (with His and Flag tags) and kappa CL come from the expression plasmids; also called APFF G56R
B10: Fab VH1-46_IGHD6-6*01_IGHJ1*01 S102A/S103P/S104F/H111F G56K & L6_IGKJ1*01 (Fab, V domains shown)
VH: B1 VH with H56K
VL: not shown
notes: Fab from E. coli; CH1 (with His and Flag tags) and kappa CL come from the expression plasmids; also called APFF G56K
B11: Fab VH1-46_IGHD6-6*01_IGHJ1*01 S102A/S103P/S104F/H111F N52K & L6_IGKJ1*01 (Fab, V domains shown)
VH: B1 VH with N52K, H56G
VL: not shown
notes: Fab from E. coli; CH1 (with His and Flag tags) and kappa CL come from the expression plasmids; also called APFF N52K
B12: Fab VH1-46_IGHD6-6*01_IGHJ1*01 S102A/S103P/S104F/H111F I51T/N52V & L6_IGKJ1*01 (Fab, V domains shown)
VH: B1 VH with I51T, N52V, H56G
VL: not shown
notes: Fab from E. coli; CH1 (with His and Flag tags) and kappa CL come from the expression plasmids; also called APFF I51T/N52V
B13: Fab VH5-51_IGHD5-18*01>3_IGHJ4*01 G100K/G104T & V3-4_IGLJ1*01 (Fab, V domains shown)
VH: EVQLVQSGAEVKKPGESLKISCKGSGYSFTSYWIGWVRQMPGKGLEWMGIIYPGDSDTRYSPSFQGQVTISADKSISTAYLQWSSLKASDTAMYYCARRKYSYTYDYFDYWGQGTLVTVSS
VL: QTVVTQEPSFSVSPGGTVTLTCGLSSGSVSTSYYPSWYQQTPGQAPRTLIYSTNTRSSGVPDRFSGSILGNKAALTITGAQADDESDYYCVLYMGSGISYVFGTGTKVTVL
notes: Fab; expressed with CH1 (His and Flag tags) and lambda CL from the expression plasmids; also called H:KT & L:wt; KT double mutant
B14: Fab VH5-51_IGHD5-18*01>3_IGHJ4*01 G100K/G104T & V3-4_IGLJ1*01 S96W (Fab, V domains shown)
VH: B13 VH
VL: B13 VL with S96W
notes: Fab; expressed with CH1 (His and Flag tags) and lambda CL from the expression plasmids; also called H:KT & S96W
B15: Fab VH5-51_IGHD5-18*01>3_IGHJ4*01 G100K/G104T & V3-4_IGLJ1*01 M94T (Fab, V domains shown)
VH: B13 VH
VL: B13 VL with M94T
notes: Fab; expressed with CH1 (His and Flag tags) and lambda CL from the expression plasmids; also called H:KT & M94T
B16: Fab VH5-51_IGHD5-18*01>3_IGHJ4*01 G100K/G104T & V3-4_IGLJ1*01 M94F (Fab, V domains shown)
VH: B13 VH
VL: B13 VL with M94F
notes: Fab; expressed with CH1 (His and Flag tags) and lambda CL from the expression plasmids; also called H:KT & M94F
B17: Fab VH5-51_IGHD5-18*01>3_IGHJ4*01 G100K/G104T & V3-4_IGLJ1*01 M94S (Fab, V domains shown)
VH: B13 VH
VL: B13 VL with M94S
notes: Fab; expressed with CH1 (His and Flag tags) and lambda CL from the expression plasmids; also called H:KT & M94S
B18: Fab VH5-51_IGHD5-18*01>3_IGHJ4*01 G100K/G104T & V3-4_IGLJ1*01 V91L (Fab, V domains shown)
VH: B13 VH
VL: B13 VL with V91L
notes: Fab; expressed with CH1 (His and Flag tags) and lambda CL from the expression plasmids; also called H:KT & V91L
B19: Fab VH5-51_IGHD5-18*01>3_IGHJ4*01 G100K/G104T & V3-4_IGLJ1*01 V91S (Fab, V domains shown)
VH: B13 VH
VL: B13 VL with V91S
notes: Fab; expressed with CH1 (His and Flag tags) and lambda CL from the expression plasmids; also called H:KT & V91S

These binders were tested against T1, Recombinant Human DLL4 (delta-like protein 4) (human, UniProt Q9NR61 27-524) (assay: ECL 96-well plate assay on immobilised DLL4, 10 nM Fab).
T1 construct: Bought recombinant protein (R&D Systems Cat#1506-D4/CF); also called rHuman DLL4

| ECL signal | Binder |
| --- | --- |
| 68800 | B1 |
| 77000 | B2 |
| 68600 | B3 |
| 52500 | B4 |
| 65700 | B5 |
| 60700 | B6 |
| 55600 | B7 |
| 69600 | B8 |
| 64300 | B9 |
| 66200 | B10 |
| 67100 | B11 |
| 71700 | B12 |

Each binder was assayed against T2, Recombinant Human DLL4 (delta-like protein 4) (human, UniProt Q9NR61 27-524) (assay: ELISA, DLL4-coated plate, 100 nM Fab).
T2 construct: Bought recombinant human DLL4 (R&D Systems Cat#1506-D4/CF); also called rHuman DLL4

| ELISA Signal [100 nM Fab] | Binder |
| --- | --- |
| 0.01 | B13 |
| 0.02 | B14 |
| 0.02 | B15 |
| 0.01 | B16 |
| 0.02 | B17 |
| 0.02 | B18 |
| 0.01 | B19 |

The binders below were run against T2, Recombinant Human DLL4 (delta-like …) (assay: ECL (MSD) binding assay, immobilised DLL4, 10 nM Fab;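 further: fab binding read as electrochemiluminescence via a TAG-labelled detection antibody, 1 h incubations at 20 °C, antigen signal compared with each well's blank, ratio of at least 4 scored as binder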).

| ECL Signal [10 nM Fab] | Binder |
| --- | --- |
| 42900 | B13 |
| 52300 | B14 |
| 43000 | B15 |
| 26300 | B16 |
| 49600 | B17 |
| 41600 | B18 |
| 32100 | B19 |

Each binder was assayed against T1, Recombinant Human DLL4 (delta-like …) (assay: ELISA on plate-coated DLL4, 100 nM Fab).

| ELISA signal | Binder |
| --- | --- |
| 0.65 | B1 |
| 0.23 | B2 |
| 0.23 | B3 |
| 0.12 | B4 |
| 0.18 | B5 |
| 0.2 | B6 |
| 0.47 | B7 |
| 0.54 | B8 |
| 0.2 | B9 |
| 0.19 | B10 |
| 0.45 | B11 |
| 1.23 | B12 |
